Molecular target: the molecule itself
Assay: crystal structure

B1: human anionic trypsin (TRY2), enterokinase activated, cleaved at the Arg122-Val123 bond (enzyme)
chain 1: IVGGYICEENSVPYQVSLNSGYHFCGGSLISEQWVVSAGHCYKSRIQVRLGEHNIEVLEGNEQFINAAKIIRHPKYNSRTLDNDILLIKLSSPAVINSR
chain 2: VSAISLPTAPPAAGTESLISGWGNTLSSGADYPDELQCLDAPVLSQAECEASYPGKITNNMFCVGFLEGGKDSCQGDSGGPVVSNGELQGIVSWGYGCAQKNRPGVYTKVYNYVDWIKDTIAANS
binding result: binds
